Values belong to the molecule of their own block, whether it stands above or below them.
What was measured:
cholesterol biosynthesis = experiment: Sterol analysis by HPLC of COS-7 cells metabolically labelled with [3H]-mevalonic acid; assay type: cell-based, green monkey; settings: 28 mM jervine
Experimental: Given the structural similarities of these compounds to cholesterol and the similar teratogenic effects of cholesterol synthesis inhibitors upon the offspring of pregnant rats, a reasonable mechanism to consider for the effects of these plant sterol derivatives was the inhibition of cholesterol biosynthesis. Accordingly, COST cultured cells treated with jervine were tested for defects in cholesterol biosynthesis by labelling with [3H]-mevalonic acid and then extracting and analyzing radiolabeled, non-saponifiable lipids.
Metabolic labeling and sterol analysis was essentially as described (Popjak et al. J. Biol. Chem. 264: 630-6238.1989; Rilling et al. 1993 Arch. Biochem. Biophys. 301: 210-215.), with minor modifications. Briefly, COS-7 cells were plated at ˜35% confluence into two 60 mm dishes at 37° C. in 4 ml each of Dulbecco's modified Eagle's medium (DMEM) supplemented with 10% fetal bovine serum (FBS). After 24 hr of growth the medium in each dish was replaced with 2 ml fresh medium with 10% FBS; [^3H]-mevalonic acid (NEN #NET 176) brought to a specific activity of 0.8 Ci/mmol in a 1% solution of bovine serum albumin was added to this medium to a final concentration of […]. At this time, one dish received […] of a 4 mg/ml solution of jervine in ethanol (final concentration 28 mM jervine), and the other received […] of ethanol. After 24 hr further incubation, cells were washed in PBS, extracted with methanol, and 1 M potassium hydroxide (KOH) added to 10%. Following a three hour incubation at 60° C., the methanol/KOH mixture was extracted with diethyl ether, the extract dried down, resuspended in isopropanol, and subjected to reverse phase HPLC analysis by the method of Rodriguez and Parks (Methods in Enzymology 111: 37-51 1985).

[1] = system: pax-2 and pax-6 expression; experiment: Ectopic expression of twhh derivatives by mRNA injection into zebrafish embryos; assay type: in vivo; settings: mRNA injected embryos
Experimental: To gain insight into the potential roles of hh products in development, synthetic twhh and shh mRNA was injected into 1-8 cell embryos. This technique yields a mosaic but fairly uniform pattern of expression, as determined for the control mRNA encoding β-galactosidase (not shown). Uniformity of expression is in good agreement with fate mapping studies of the early zebrafish embryo (Kimmel & Warga, supra; Warga & Kimmel, supra; Heide, et al., Science, 265:517-520, 1994), which indicate that blastomeres undergo extensive cell mixing during the cleavages pnor to gastrulation.
Ectopic hh alters the expression of par-2, pax-6, and F-spondin. Zebrafish embryos were injected at the 1-8 cell stage with twhh or shh RNA and the pattern of pax-2, pax-6, or F-spondin expression was examined by whole mount in situ hybridization. […] At embryo stage, the anterior-posterior axis of the optic vesicle corresponds to the future proximal-distal axis of the eye. During the next hour of development, the posterior edge of the optic vesicle will separate from the diencephalon (Schmitt and Dowling, Comp. Neur., 344:532-542. 1994).
17(a) Cartoons of various twhh open reading frames. SS (shaded) is the predicted N-terminal signal sequence for secretion of these proteins and encompasses the first 27 amino acids of each open reading frame. The arrow indicates the predicted internal site of auto-proteolytic cleavage. Amino acid residue numbers are according to FIG. 13b. The filled triangle denotes the normal termination codon for the twhh open reading frame. Construct UHA contains a mutation that blocks auto-proteolysis (the histidine at residue 273 is changed to an alanine; see Lee, J. J., et al, supra.). Construct U356HA contains a stop codon in place of amino acid residue 357 as well as the H273A mutation in UHA. Construct N encodes just the first 200 amino acids of twhh. Construct C has had the codons for residues 31-197 deleted. […] Constructs were translated in vitro in the presence of ^35S methionine and analyzed by autoradiography after SDS-PAGE. The protein products are shown schematically to the left. […]

Hh autoprocessing = experiment: In vitro autocleavage assays of site-directed mutant His6Hh-C proteins; settings: 6 hours at 30° C.
auto-proteolysis = experiment: In vitro translation of wild-type and mutant Hh proteins (mapping of auto-proteolysis); assay type: biochemical, Drosophila; zebrafish
[2] = system: wg and dpp expression in imaginal discs; experiment: Signaling in imaginal discs of thermally cycled larvae (wg-lacZ / dpp-lacZ, X-gal staining); settings: thermal cycling of larvae
wg expression = experiment: Embryonic induction of wg expression after heat shock of hshh / hshh H329A embryos (in situ hybridization)
[3] = Heparin agarose binding of in vitro translated Hh protein species; set-up: species or system Drosophila; settings: wash with 0.1% Triton X-100 and 150 mM NaCl
Experimental: In vitro translations were performed with the use of the TNT coupled transcription-translation system (Promega). ^35S methionine (DuPont NEN) was used for detection by autoradiography. […] Samples were incubated at 4° C. for four hours with gentle rocking. After pelleting the beads, supernatants in some samples were analyzed (lanes 2 and 4). The beads were then washed 5 times with chilled HBB and samples (lanes 3 and 5) were subsequently eluted at 80° C. for 10 minutes in SDS PAGE loading buffer (F. M. Ausubel et al., supra).
One possible explanation for this differential behavior might be association of the N fragment with extracellular matrix proteins on the surfaces of the S2 cells. Accordingly, the relative affinity of these two proteins for heparin agarose was examined, since heparin binding is a common property of proteins that associate with the extracellular matrix. Given the obvious difficulty in obtaining soluble N from cultured cells, in vitro translation in the presence of microsomes was used to generate soluble, labelled N and C. […] Furthermore, N but not C was retained upon the heparin agarose beads upon extensive washing with a solution that contains 0.1% Triton X-100 and 150 mM NaCl; in contrast, neither fragment was retained by unmodified agarose. […]

Molecule: CC1=C2C(=O)[C@H]3[C@@H](CC=C4C[C@@H](O)CC[C@@]43C)[C@@H]2CC[C@]12O[C@@H]1C[C@H](C)CN[C@H]1[C@H]2C [jervine]
Accumulation of another radiolabeled sterol (tentatively zymosterol) (cholesterol biosynthesis; COS 7 cells, 24 hr): another radiolabeled sterol was found to accumulate
Radiolabeled cholesterol levels (cholesterol biosynthesis; COS 7 cells, 24 hr): reduced
Cholesterol biosynthesis in cultured cells (cholesterol biosynthesis; COS-7 cells): inhibits cholesterol biosynthesis

B1: UHA: twhh with H273A mutation that blocks auto-proteolysis (protein, UniProt Q90419 27-416, looked up, variant H273A)
Tiggy-winkle hedgehog protein: CGPGRGYGKRRHPKKLTPLAYKQFIPNVAEKTLGASGKYEGKITRNSERFKELIPNYNPDIIFKDEENTNADRLMTKRCKDKLNSLAISVMNHWPGVKLRVTEGWDEDGHHLEESLHYEGRAVDITTSDRDKSKYGMLSRLAVEAGFDWVYYESKAHIHCSVKAENSVAAKSGGCFPGSGTVTLGDGTRKPIKDLKVGDRVLAADEKGNVLISDFIMFIDHDPTTRRQFIVIETSEPFTKLTLTAAALVFVGNSSAASGITATFASNVKPGDTVLVWEDTCESLKSVTVKRIYTEEHEGSFAPVTAHGTIIVDQVLASCYAVIENHKWAHWAFAPVRLCHKLMTWLFPARESNVNFQEDGIHWYSNMLFHIGSWLLDRDSFHPLGILHLS
Ectopic activation (induction) of pax-2 in the developing eye [1]: only somewhat less active than C in inducing pax-2
Repression of pax-6 [1]: not able to repress pax6 efficiently

B2: U356HA: twhh with stop codon in place of residue 357 and the H273A mutation (protein, UniProt Q90419 27-416, looked up, variant H273A)
Tiggy-winkle hedgehog protein: CGPGRGYGKRRHPKKLTPLAYKQFIPNVAEKTLGASGKYEGKITRNSERFKELIPNYNPDIIFKDEENTNADRLMTKRCKDKLNSLAISVMNHWPGVKLRVTEGWDEDGHHLEESLHYEGRAVDITTSDRDKSKYGMLSRLAVEAGFDWVYYESKAHIHCSVKAENSVAAKSGGCFPGSGTVTLGDGTRKPIKDLKVGDRVLAADEKGNVLISDFIMFIDHDPTTRRQFIVIETSEPFTKLTLTAAALVFVGNSSAASGITATFASNVKPGDTVLVWEDTCESLKSVTVKRIYTEEHEGSFAPVTAHGTIIVDQVLASCYAVIENHKWAHWAFAPVRLCHKLMTWLFPARESNVNFQEDGIHWYSNMLFHIGSWLLDRDSFHPLGILHLS
modifications: truncated after residue 356
notes: twhh with stop codon in place of residue 357 and the H273A mutation
Repression of pax-6 [1]: activities not significantly different from N

B3: H329A: Drosophila Hh with His-329 to alanine; in vitro translated full length and His6Hh-C25 context (protein)
chain: CGPGRGLGRHRARNLYPLVLKQTIPNLSEYTNSASGPLEGVIRRDSPKFKDLVPNYNRDILFRDEEGTGADRLMSKRCKEKLNVLAYSVMNEWPGIRLLVTESWDEDYHHGQESLHYEGRAVTIATSDRDQSKYGMLARLAVEAGFDWVSYVSRRHIYCSVKSDSSISSHVHGCFTPESTALLESGVRKPLGELSIGDRVLSMTANGQAVYSEVILFMDRNLEQMQNFVQLHTDGGAVLTVTPAALVSVWQPESQKLTFVFADRIEEKNQVLVRDVETGELRPQRVVKVGSVRSKGVVAPLTREGTIVVNSVAASCYAVINSQSLAHWGLAPMRLLSTLEAWLPAKEQLHSSPKVVSSAQQQNGIHWYANALYKVKDYVLPQSWRHD
Cholesterol-stimulated autocleavage (cholesterol transfer) (Hh autoprocessing; 350 μM cholesterol/1 mM DTT): inactive
DTT-stimulated autocleavage (thioester formation) (Hh autoprocessing; 50 mM DTT): inactive
Auto-proteolysis (processing) of in vitro translated protein (auto-proteolysis): blocked or severely inhibited

B4: hshh H329A: heat shock-inducible hh with H329A mutation blocking auto-proteolysis (protein)
chain: CGPGRGLGRHRARNLYPLVLKQTIPNLSEYTNSASGPLEGVIRRDSPKFKDLVPNYNRDILFRDEEGTGADRLMSKRCKEKLNVLAYSVMNEWPGIRLLVTESWDEDYHHGQESLHYEGRAVTIATSDRDQSKYGMLARLAVEAGFDWVSYVSRRHIYCSVKSDSSISSHVHGCFTPESTALLESGVRKPLGELSIGDRVLSMTANGQAVYSEVILFMDRNLEQMQNFVQLHTDGGAVLTVTPAALVSVWQPESQKLTFVFADRIEEKNQVLVRDVETGELRPQRVVKVGSVRSKGVVAPLTREGTIVVNSVAASCYAVINSQSLAHWGLAPMRLLSTLEAWLPAKEQLHSSPKVVSSAQQQNGIHWYANALYKVKDYVLPQSWRHD
Expansion of dpp expression in the eye-antennal disc [2]: did not induce expansion of dpp expression
wg and dpp expression patterns in the leg disc [2]: produced little if any detectable difference in these patterns of expression
Expansion of wg expression beyond wild-type controls, average number of cell diameters ± standard deviation (wg expression; minutes of heat shock: 10): 0.7 ± 0.5 cell diameters
Expansion of wg expression beyond wild-type controls, average number of cell diameters ± standard deviation (wg expression; minutes of heat shock: 10/10): 1.1 ± 0.4 (145) cell diameters
Expansion of wg expression beyond wild-type controls, average number of cell diameters ± standard deviation (wg expression; minutes of heat shock: 30): 0.9 ± 0.4 (111) cell diameters
Expansion of wg expression beyond wild-type controls, average number of cell diameters ± standard deviation (wg expression; minutes of heat shock: 30/30): 1.9 ± 0.5 (93) cell diameters

Binding to heparin agarose [3]: not bound effectively by heparin agarose
B5: C-terminal fragment: Drosophila hh 25 kD C-terminal fragment (protein)
chain: CFTPESTALLESGVRKPLGELSIGDRVLSMTANGQAVYSEVILFMDRNLEQMQNFVQLHTDGGAVLTVTPAHLVSVWQPESQKLTFVFADRIEEKNQVLVRDVETGELRPQRVVKVGSVRSKGVVAPLTREGTIVVNSVAASCYAVINSQSLAHWGLAPMRLLSTLEAWLPAKEQLHSSPKVVSSAQQQNGIHWYANALYKVKDYVLPQSWRHD
